For this data set the following is noted: Escherichia coli (strain K12); pH 5.5; 25 °C; GdnHCl; Fluorescence; Sodium acetate 20 mM; NaCl 0.1 M; reversible: yes; whole UniProt chain shown.

B1: Ribonuclease HI wild type, P0A7Y4 (protein)
chain: MLKQVEIFTDGSCLGNPGPGGYGAILRYRGREKTFSAGYTRTTNNRMELMAAIVALEALKEHCEVILSTDSQYVRQGITQWIHNWKKRGWKTADKKPVKNVDLWQRLDAALGQHQIKWEWVKGHAGHPENERCDELARAAAMNPTLEDTGYQVEV
As for B1, the denaturant m value was 5.17 kcal/mol/M, the “denaturant midpoint (higher = more stable)” value came out at 1.79 M and the unfolding free energy was 9.26 kcal/mol.

The record behind these values is FireProtDB (doi:10.1111/j.1432-1033.1991.tb16033.x).
